Our source for the self-cleavage values is the RNAGym collection of RNA variant scans (doi:10.7554/elife.80360).

The chains are these.
B1: Hairpin Ribozyme (parent)
chain: GUCCUCUUUCACGUGCGCGUGAAAGAGAGAAGUGAACCAGAGAAACACACGUUGUGGUAUAUUACCUGGUA

The variants in this data set derive from B1. Briefly: self-cleavage, relative activity (ratio to wild type); higher = more cleavage; co-transcriptional.
For A49C U62C, the self-cleavage was 0.22.
The same measure for A49G C66A: 0.302; for A49G C66G: 0.192; for U52C G57U: 0.207.
Next, A49C G68U: 0.118; A49C G68C: 0.15; A49C G68A: 0.164.
Next, C48A U52A: 0.233; U52A U60A: 0.988; U52A U60C: 1.42.
For A49G G56U, the self-cleavage is 0.261.
The same measure for G51U A64U: 0.167; for C48A U70G: 0.144.
On to C48A U70A, for which the self-cleavage was 0.209.
Next, C50A U63G: 0.2.
On to C50A U63A, for which the self-cleavage worked out at 0.0698.
Next, C48U U60A: 0.107; C48G G51A: 0.172; C50G G68A: 0.132.
The same measure for C50A U67A: 0.153; for A49U U60G: 0.0756.
Next, A47U A59U: 0.194; A47G G51A: 0.15; C48U U63G: 0.163.
Regarding C48U U63C, the self-cleavage is 0.19.
Next, C50G U70A: 0.178.
The same measure for C50G U58C: 0.297; for C50G U58A: 0.0745; for A49U G54U: 0.36.
The same measure for G51U U55A: 0.302; for G51U U55C: 0.245.
Regarding A49C A59C, the self-cleavage came to 0.168.
Regarding A49C A59G, the self-cleavage was determined as 0.167.
Consider A49U C65A, for which the self-cleavage amounted to 0.188.
Next, C48A A59U: 0.121; C48A A59G: 0.219; C48A A59C: 0.139.
Next, U52C A59C: 0.254; U52C A59G: 0.0564; A47G G57U: 0.179.
Next, A49G U55A: 0.431.
Take A47G U58A: the self-cleavage is 0.221.
C50G U53A: the self-cleavage amounted to 0.251.
Consider C50G U53G, for which the self-cleavage was determined as 0.0749.
Turning to A49G G68A, the self-cleavage came out at 0.147.
For U52G, the self-cleavage is 0.862.
Next, U52A: 1.03.
The same measure for U52C: 0.97; for A49C C50U: 0.122.
The same measure for A49G A61G: 0.211; for A49G A61U: 0.217; for G51U U60G: 0.659.
Turning to G51U U60C, the self-cleavage came out at 1.49.
The same measure for A49C G51U: 0.0813; for A49C G51C: 0.1.
The same measure for A49U G51A: 0.209; for A49U G51C: 0.166.
Next, G51A U62G: 0.262; A47U U67G: 0.185.
A47U U67C: the self-cleavage came to 0.0849.
The same measure for G51C U55C: 0.306; for G51C U55G: 0.268.
As for A49C G57U, the self-cleavage is 0.0763.
Next, U52C U62G: 0.0331.
As for C50U G51C, the self-cleavage turned out to be 0.256.
The same measure for G51A U70G: 0.792; for U52C U60C: 1.16.
For the variant U52C U60G, the self-cleavage amounted to 0.55.
Next, G51A U58G: 1.12.
Next, G51C C66G: 0.206; A47G U67A: 0.136.
Next, A47G U67C: 0.129; A47G G68U: 0.104.
A47G G68C: the self-cleavage was found to be 0.143.
With U52A G54A, the self-cleavage is 0.621.
For the variant C50A G57U, the self-cleavage was 0.128.
The same measure for A49G C50G: 0.166.
Consider A49C U58A, for which the self-cleavage came to 0.082.
Consider A49U A71C, for which the self-cleavage came to 0.607.
The same measure for A47U U63A: 0.114; for A47U U63G: 0.0673; for C50A U70C: 0.244.
Next, U52C A64U: 0.331; C50A U53G: 0.395; C48G U52A: 0.135.
Next, C48G U52C: 0.218; G51U G57U: 0.271; G51U G57C: 0.137.
As to U52C G54A, the self-cleavage came to 0.568.
The same measure for C50A G51A: 0.288; for C50A G51C: 0.36.
Next, A49C G69C: 0.241; C48U A64C: 0.255.
Next, C48U A64U: 0.11; C48U A64G: 0.0861; U52C A61C: 0.263.
U52C A61U: the self-cleavage came to 0.226.
The same measure for U52C A61G: 0.253.
In the case of A49C G56U, the self-cleavage is 0.23.
The same measure for U52A G56U: 0.196; for U52A G56C: 0.124; for U52C U67G: 0.276.
A47U G57C: the self-cleavage turned out to be 0.157.
The same measure for A47U U53G: 0.108; for C50G U52C: 0.155; for C50U C65A: 0.359.
Next, G51U A71U: 0.793.
The same measure for C50U U70A: 0.266; for C50G A64U: 0.19.
Consider C50G C65A, for which the self-cleavage was 0.463.
Next, C50U G54A: 0.864.
As to A47G G56U, the self-cleavage came out at 0.169.
The same measure for U52A A71C: 1.46; for G51A G54C: 0.36.
The same measure for G51U U67G: 0.384; for C48A U60C: 0.208.
The same measure for A49C C65U: 0.08; for C50G U60C: 0.353.
For A49U G69A, the self-cleavage was 0.136.
Next, A47G U53A: 0.176; A47G U53C: 0.
Next, C48U G69A: 0.178; G51C C65G: 0.205; U52A G57U: 0.267.
Next, U52A G57A: 0.182; G51A G57U: 0.299.
Take C48U U67A: the self-cleavage turned out to be 0.119.
The same measure for C48U U67C: 0.11.
Next, C50U G69U: 0.128; G51U U62C: 0.324.
The same measure for C48A U55G: 0.251; for C48A U55A: 0.228; for G51A C65U: 0.151.
Regarding A49U C66A, the self-cleavage came out at 0.181.
Next, A49U C66G: 0.136; A49U C66U: 0.102; U52C G69C: 0.313.
Next, U52A C65U: 0.328; U52C G56A: 0.211; A49U U55A: 1.03.
The same measure for C48U G57A: 0.147; for C50U U53G: 0.242.
As for C50U U53C, the self-cleavage stood at 0.261.
For the variant G51A A61C, the self-cleavage amounted to 0.0891.
Next, A49G A71C: 1.18; A49G A71U: 0.397; A49G A71G: 0.526.
Next, A47U A49G: 0.161; C48G A71C: 0.231.
The same measure for C48G A71U: 0.14.
Regarding U52C C66U, the self-cleavage is 0.626.
The same measure for G51A U53G: 0.765.
Next, G51A U53A: 0.869; U52G G68A: 0.407; C50U G57A: 0.112.
In the case of C48U U62C, the self-cleavage is 0.118.
Consider C48U U62A, for which the self-cleavage was determined as 0.201.
Next, C50A G56A: 0.21.
Next, U52A U53A: 0.817.
Next, U52A U53G: 1.01; C50U A59U: 0.272.
With C48G U58G, the self-cleavage is 0.0532.
As to C50U U52G, the self-cleavage is 0.318.
Next, C48G U63G: 0.0813; G51C G56U: 0.147.
The same measure for C50A U52C: 0.31.
Next, C50A U52G: 0.361.
